The source of these data is patent publication US11912782B2, “BCMA monoclonal antibody-drug conjugate” (MedImmune, LLC, priority 2017, dated 2024).

Broadly, the IC50 is the midpoint of a concentration-inhibition curve. One may read the Kd as the concentration at which binding is half-saturated.

For one assay, the system named is MM.1S cells. The assay can be described thus: Cell killing in the presence of soluble BCMA (conditioned media from Ad293 cells expressing human BCMA). The assay is classed as cell-based. Here is the method: Killing of multiple myeloma and plasma cell leukemia cell lines by antibody-drug conjugates comprising 15B2GL, or affinity-optimized clones thereof, conjugated to SG3249 was evaluated in vitro using the protocol recommended in the CELLTITER-GLO® kit (Promega, Madison, Wis.). Killing of multiple myeloma and plasma cell leukemia cell lines by the free warhead SG3199 also was evaluated using the protocol recommended in the CELLTITER-GLO® kit (Promega, Madison, Wis.). Briefly, 5×10^3 cells in 80 μL RPMI+10% FBS were added to the inner wells of white-walled 96-well plates (Corning® Costar®, Fisher Scientific, Waltham, Mass.). The following BCMA-expressing cell lines were tested: NCI-H929, EJM, MM.1R. JJN3, OPM-2, MM.1S, U266.B1, and L363. BMCA-negative cell lines Raji and Jurkat also were tested. The antibody-drug conjugates were diluted to a 5× stock (2.5 μg/mL) in RPMI+10% FBS. Treatments were then serially diluted 1:3 in RPMI+10% FBS. 20 μL of this series was added to the cells in duplicate, resulting in a 12-point dose curve of antibody-drug conjugate ranging from 0.5 μg/mL at the highest concentration to 3×10^−[…] at the lowest. Isotype antibody-drug conjugate (IgG1-SG3249 and IgG1-mc-MMAF) and media-only controls also were included. Plates were incubated at 37° C., 5% CO2 for 96 hours. At the end of the incubation period, 100 μL of the Substrate Solution (Promega, Madison Wis.) was added to each well. Luminescence was measured using an EnVision™ Multilabel plate reader (Perkin Elmer, Waltham, Mass.). Data were analyzed and graphed using GraphPad Prism™ software (GraphPad Software, Inc., La Jolla, Calif.), and the half-maximal inhibitory concentration (IC50) was determined.
The ability of the 15B2GL-SG3249 ADC to kill multiple myeloma cells in vitro in the presence of soluble BCMA (sBCMA) as compared to the I09-5G3249 ADC was evaluated in MM.1S cells using the protocol described above, except that tested cell lines also were treated with BCMA-containing conditioned media collected from Ad293 cells expressing human BCMA (FIGS. 3A and 3B). 15B2GL-SG3249 ADC cell killing in the presence of sBCMA also was compared to ADCs comprising the anti-BCMA antibody J6M0, which is described in U.S. Pat. No. 9,273,141.

The test system of assay [1] is MM.1S xenograft. The assay can be described thus: MM.1S subcutaneous xenograft model (Example 9). It counts as in vivo, mouse. As to conditions: 3 mg/kg intravenous, observed for 85 days post tumor implantation. An excerpt:
(§1) Subcutaneous xenograft mouse models of multiple myeloma and plasma cell leukemia were generated by implanting BCMA-expressing multiple myeloma or plasma cell leukemia cell lines (i.e., NCI-H929 and MM.1S) into female CB-17 SCID (C.B-17/IcrHsd-Prkdc-scid) mice using MATRIGEL™ (BD Biosciences, San Jose, Calif.). Once tumors reached approximately 200 mm^3 (NCI-H929 cells) or 180 mm^3 (MM.1S cells), mice were randomized based on tumor size and placed into dosing groups and treated with BCMA-targeting ADCs as described below.
Mice were treated with either a single intravenous dose of the ADCs IgG1-SG3400 or 15B2GL-SG3400 at 1 mg/kg or 3 mg/kg or dosed intravenously with J6M0-SG3400 at a dose of 1 mg/kg or 3 mg/kg. Control mice were left untreated.

Another assay relates to JJN3 xenograft. The assay can be described thus: JJN3 subcutaneous xenograft model. It counts as in vivo, mouse. As to conditions: single intravenous dose 1 mg/kg, observed for 104 days post tumor implantation.
Excerpt: as §1, with “(i.e., NCI-H929, JJN-3, MM.1S,” for “(i.e., NCI-H929”, “and MM.1R)” for “and MM.1S)”, “(C.B-17/IcrHsd-Prkdc-scid) or athymic nude (Foxn1^nu)” for “(C.B-17/IcrHsd-Prkdc-scid)”, “approximately 180” for “approximately 200”, “(NCI-H929 cells), 190 mm^3 (JJN3 cells), 160” for “(NCI-H929 cells) or 180”, “(MM.1S cells), or 175 mm^3 (MM.1R” for “(MM.1S”
Mice were treated with either a single intravenous dose of 15B2GL-SG3249, 109-SG3249, and L15-SG3249 ADCs at 1 mg/kg, or dosed intravenously with J6M0-mc-MMAF ADC weekly at a dose of 1 mg/kg for 3 weeks. Control mice were left untreated.

In the next assay the test system is NCI-H929 xenograft. The experiment in a line: NCI-H929 subcutaneous xenograft model (Example 5). The assay is classed as in vivo, mouse. As to conditions: single intravenous dose 0.3 mg/kg, observed for 99 days post tumor implantation.
Excerpt: as §1, with “(i.e., NCI-H929, JJN-3, MM.1S,” for “(i.e., NCI-H929”, “and MM.1R)” for “and MM.1S)”, “(C.B-17/IcrHsd-Prkdc-scid) or athymic nude (Foxn1^nu)” for “(C.B-17/IcrHsd-Prkdc-scid)”, “approximately 180” for “approximately 200”, “(NCI-H929 cells), 190 mm^3 (JJN3 cells), 160” for “(NCI-H929 cells) or 180”, “(MM.1S cells), or 175 mm^3 (MM.1R” for “(MM.1S”
Mice were treated with either a single intravenous dose of the ADCs 15B2GL-SG3249, I09-5G3249, L15-SG3249 at 0.3 mg/kg or dosed intravenously with J6M0-mc-MMAF weekly at a dose of 0.3 mg/kg for 2 weeks. Control mice were left untreated.

Assay [2] relates to MM.1S xenograft. The experiment in a line: MM.1S subcutaneous xenograft model (Example 5). It counts as in vivo, mouse. As to conditions: single intravenous dose 1 mg/kg, observed for 99 days post tumor implantation.
Excerpt: as §1, with “(i.e., NCI-H929, JJN-3, MM.1S,” for “(i.e., NCI-H929”, “and MM.1R)” for “and MM.1S)”, “(C.B-17/IcrHsd-Prkdc-scid) or athymic nude (Foxn1^nu)” for “(C.B-17/IcrHsd-Prkdc-scid)”, “approximately 180” for “approximately 200”, “(NCI-H929 cells), 190 mm^3 (JJN3 cells), 160” for “(NCI-H929 cells) or 180”, “(MM.1S cells), or 175 mm^3 (MM.1R” for “(MM.1S”
Mice were treated with either a single intravenous dose of 15B2GL-SG3249, 109-SG3249, L15-SG3249 ADCs at 1 mg/kg or dosed intravenously with J6M0-mc-MMAF twice weekly at a dose of 1 mg/kg for 4 weeks. Control mice were left untreated.

In a further assay the target is T1, monomeric human sBCMA (Homo sapiens, UniProt Q02223).
T1 construct: is comprised of the entire extracellular domain of the molecule; purchased GenScript
T1 sequence (Q02223 1-54 limits assumed): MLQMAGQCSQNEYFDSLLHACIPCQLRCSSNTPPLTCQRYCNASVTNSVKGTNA
The experiment in a line: Kinetics/affinity measurement by SPR (BioRad ProteOn XPR36), antibody captured by anti-Fc, sBCMA flowed over. As to conditions: for Koff / Kon: sBCMA 100-6.25 nM; for Kd: unit inferred. It counts as binding. Here is the method:
The binding of 15B2GL monoclonal antibody and optimized clones I09, L15, P10, N22, and M02 (described in Example 1) was assessed using monomeric human sBCMA (GenScript, Piscataway, N.J.) using a ProteOn™ XPR36 instrument (Bio-Rad, Hercules, Calif.). The binding of J6M0 also was assessed for comparison. Standard amine coupling was used to immobilize 25 μg/ml anti-Fc polyclonal antibody (Jackson ImmunoResearch, West Grove, Pa.) prepared in 10 mM sodium acetate buffer (pH 4.5) to the surface of a ProteOn™ GLC biosensor chip (Bio-Rad, Hercules, Calif.) pre-activated with 20 mM EDAC (1-ethyl-3-(3-dimethylaminopropyl)carbodiimide hydrochloride) and 5 mM Sulfo-NHS (N-hydroxysulfosuccinimide) at a density of ˜200-600 resonance units (RU). 15B2GL, I09, L15, P10, N22, M02, and J6M0 were subsequently injected at a concentration of 1 μg/ml for capture by the immobilized anti-Fc polyclonal antibody. The sensorgram was recorded by flowing two-fold serial dilutions of sBCMA prepared in PBS (pH 7.4) with 0.005% (v/v) Tween®-20, ranging from 100-6.25 nM, over the captured surface for 150 seconds at 75 μL/minute with dissociation time of 600 seconds. ProteOn™ data analysis software was used to analyze the data.

In the case of “J6M0-SG3249: ADC comprising the anti-BCMA antibody J6M0 and SG3249”, the IC50 in the assay on MM.1S cells (sBCMA 0 ng/mL) came to 0.004816 µg/mL; in the assay on MM.1S cells (sBCMA 75 ng/mL), 0.01283 µg/mL; with MM.1S cells (sBCMA 270 ng/mL) it was 0.03226 µg/mL; with MM.1S cells (sBCMA 720 ng/mL), 0.09292 µg/mL. For the same molecule, the “Fold loss of potency” value is 2.66 in the assay on MM.1S cells (sBCMA 75 ng/mL vs 0), 6.70 in the assay with MM.1S cells (sBCMA 270 ng/mL vs 0) and 19.29 with MM.1S cells (sBCMA 720 ng/mL vs 0).
As for “J6M0-SG3400: BCMA-targeting ADC of J6M0 with SG3400”, the tumor regrowth result with MM.1S xenograft [1] was “no evidence of tumor regrowth”.

B1: I09-SG3249: ADC: optimized clone I09 conjugated to the PBD payload SG3249 (conjugate)
VH: EVQLVESGGGLVKPGGSLRLSCAASGFTFSSYSMNWVRQAPGKGLEWVSSISGSSNYIYYADSVKGRFTISRDNAKNSLYLQMNSLRAEDTAVYYCARGGNYFVEYFQQWGQGTLVTVSS
VL: EIVLTQSPGTLSLSPGERATLSCRASQYISSNYLAWYQQKPGQAPRLLIYGASNRATGIPDRFSGSGSGTDFTLTISRLEPEDFAVYYCQQYSSDPITFGQGTKLEIK
As for B1, the tumor regrowth result in the assay on JJN3 xenograft, with NCI-H929 xenograft and in the assay on MM.1S xenograft [2] was “no evidence of tumor regrowth” throughout.

B2: P10: lead optimized clone of 15B2GL; VH SEQ ID NO: 19, VL SEQ ID NO: 20 (antibody, V domains shown)
VH: EVQLVESGGGLVKPGGSLRLSCAASGFTFRSYSMNWVRQAPGKGLEWVSSISGQSNYIYYADSVKGRFTISRDNAKNSLYLQMNSLRAEDTAVYYCARGGNYYVEYFQYWGQGTLVTVSS
VL: EIVLTQSPGTLSLSPGERATLSCRASQYISSNYLAWYQQKPGQAPRLLIYGASNRATGIPDRFSGSGSGTDFTLTISRLEPEDFAVYYCQQYTDSPITFGQGTKLEIK
In the assay with monomeric human sBCMA, B2 had a Koff of 3.73E−03, a Kon of 7.01E+05 and a Kd of 5.32 nM.

B3: M02: lead optimized clone of 15B2GL; VH SEQ ID NO: 15, VL SEQ ID NO: 16 (antibody, V domains shown)
VH: EVQLVESGGGLVKPGGSLRLSCAASGFTFSSYSMNWVRQAPGKGLEWVSSISGQSNYIYYADSVKGRFTISRDNAKNSLYLQMNSLRAEDTAVYYCARGGNYYVEYFQYWGQGTLVTVSS
VL: EIVLTQSPGTLSLSPGERATLSCRASQYISSNNLAWYQQKPGQAPRLLIYGASNRATGIPDRFSGSGSGTDFTLTISRLEPEDFAVYYCQQYSSDPITFGQGTKLEIK
In the assay with monomeric human sBCMA, B3 registered a Koff of 4.97E−03, a Kon of 4.99E+05 and a Kd of 9.95 nM.

B4: N22: lead optimized clone of 15B2GL; VH SEQ ID NO: 17, VL SEQ ID NO: 18 (antibody, V domains shown)
VH: EVQLVESGGGLVKPGGSLRLSCAASGFTFSSYSMNWVRQAPGKGLEWVSSISGSSNYIYYADSVKGRFTISRDNAKNSLYLQMNSLRAEDTAVYYCARGGNYFVEYFQYWGQGTLVTVSS
VL: EIVLTQSPGTLSLSPGERATLSCRASQYISSNYLAWYQQKPGQAPRLLIYGASNRATGIPDRFSGSGSGTDFTLTISRLEPEDFAVYYCQQYSSSPITFGQGTKLEIK
In the assay with monomeric human sBCMA, B4 yielded a Koff of 8.73E−03, a Kon of 5.36E+05 and a dissociation constant Kd of 16.3 nM.

B5: L15: lead optimized clone of 15B2GL; VH SEQ ID NO: 13, VL SEQ ID NO: 14 (antibody, V domains shown)
VH: EVQLVESGGGLVKPGGSLRLSCAASGFTFSSYSMNWVRQAPGKGLEWVSSISGQSNYIYYADSVKGRFTISRDNAKNSLYLQMNSLRAEDTAVYYCARGGNYFVEYFQYWGQGTLVTVSS
VL: EIVLTQSPGTLSLSPGERATLSCRASQYISSNNLAWYQQKPGQAPRLLIYGASNRATGIPDRFSGSGSGTDFTLTISRLEPEDFAVYYCQQYADSPITFGQGTKLEIK
In the assay with monomeric human sBCMA, B5 came in with a Koff of 3.86E−03, a Kon of 8.54E+05 and an equilibrium dissociation constant (Kd) of 4.51 nM.

B6: I09: lead optimized clone of 15B2GL; VH SEQ ID NO: 11, VL SEQ ID NO: 12 (antibody, V domains shown)
VH: EVQLVESGGGLVKPGGSLRLSCAASGFTFSSYSMNWVRQAPGKGLEWVSSISGSSNYIYYADSVKGRFTISRDNAKNSLYLQMNSLRAEDTAVYYCARGGNYFVEYFQQWGQGTLVTVSS
VL: EIVLTQSPGTLSLSPGERATLSCRASQYISSNYLAWYQQKPGQAPRLLIYGASNRATGIPDRFSGSGSGTDFTLTISRLEPEDFAVYYCQQYSSDPITFGQGTKLEIK
In the assay with monomeric human sBCMA, B6 registered a Koff of 5.99E−03, a Kon of 6.09E+05 and a Kd of 9.82 nM.
